Laboratory results reported in US20070225241A1.

Target: calf thymus RNA Polymerase II (12-subunit enzyme, Form II; core of Form I) (bovine (calf thymus))
Assay: quantification of seven Coomassie stained SDS-PAGE gel bands of purified or reconstituted FI RNAPII

For “native calf thymus Gdown1 (41 kD polypeptide of Form I RNAPII) (from UniProt Q17QE3 1-370)”, the average molar ratio of Gdown1 to Rpb5 in FI RNAPII was 1 molar ratio.
